Laboratory results published in the Immune Epitope Database (IEDB).

Each sequence was assayed against HLA-A*02:01 (assay: IEDB peptide-MHC binding, cellular MHC/competitive/fluorescence; ≥ and ≤ were set here for values at or beyond the usual limits of such assays). Conditions: source organism: Human papillomavirus 16.

Point of comparison: YMLDLQPETTD, IC50 2.37 µM. Against it:
- RTLEDLLMGTL — within 1.5-fold, 2.69 µM
- EDLLMGTLGIV — 6-fold higher, 14.2 µM
- MLDLQPET — 23-fold higher, 53.7 µM
- EYMLDLQPET — 19-fold higher, 45.3 µM
- TLHEYMLDLQP — 8.2-fold higher, 19.4 µM
- IRTLEDLLMGT — 13-fold higher, 31.9 µM
- ELQTTIHDI — 16-fold higher, 36.9 µM
- TLEDLLMGT — 27-fold higher, 64.6 µM
- YMLDLQPE — 3.4-fold higher, 8.07 µM
- RTLEDLLMGT — 28-fold higher, 66.9 µM
